From PMC12719470 come the findings set out here.

The assay concerns the target Nanobody-161 IgG1 Y105G. Briefly: BLI; 30 nM Nanobody-161 IgG1 or mutant immobilised on Protein A biosensors (Gator); 4800 nM-300 nM TNFR2-His in Q Buffer (PBS, 0.02% Tween 20, 0.2% BSA); 25 °C; association 120 s, dissociation 180 s; global 1:1 Langmuir fit. In general terms: In BLI a coated tip is dipped into the sample, and binding shifts an interference pattern.

Sequence of TNFR2-His protein (P20333 23-461): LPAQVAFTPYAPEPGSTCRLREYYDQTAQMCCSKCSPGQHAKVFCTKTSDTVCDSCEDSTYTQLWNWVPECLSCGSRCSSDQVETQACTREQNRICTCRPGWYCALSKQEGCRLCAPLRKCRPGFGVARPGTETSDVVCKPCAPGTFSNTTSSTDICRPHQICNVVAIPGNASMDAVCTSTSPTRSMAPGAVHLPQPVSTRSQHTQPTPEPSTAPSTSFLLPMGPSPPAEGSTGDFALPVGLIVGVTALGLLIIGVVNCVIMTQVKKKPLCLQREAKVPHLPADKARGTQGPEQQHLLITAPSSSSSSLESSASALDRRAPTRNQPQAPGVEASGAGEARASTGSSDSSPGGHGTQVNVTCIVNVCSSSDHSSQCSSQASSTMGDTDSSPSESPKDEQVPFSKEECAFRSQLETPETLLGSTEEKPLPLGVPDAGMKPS
Sequence of Nanobody-161 IgG1 Y105G (heavy, as listed by the source): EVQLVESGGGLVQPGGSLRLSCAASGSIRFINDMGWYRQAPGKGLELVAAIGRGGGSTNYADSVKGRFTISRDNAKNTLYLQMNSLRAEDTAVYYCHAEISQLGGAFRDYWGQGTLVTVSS

A word on the Kd: it is the free concentration of one partner at which half of the binding sites on the other are occupied at equilibrium, for simple one-to-one binding. Low values mean a tighter complex, high ones a looser complex. The koff is a measure of how fast the partners let go of each other. Higher therefore signals fast dissociation. As a reminder, the kon is the second-order rate constant of association. Consider “TNFR2-His protein (from UniProt P20333 23-461) (receptor)”, for which the Kd turned out to be 214 µM, the off-rate (koff) worked out at 0.0917 s⁻¹ and the kon stood at 429 M⁻¹ s⁻¹.
